One experiment addresses mCherry-sCD95L. Kind of experiment: fluorescence correlation spectroscopy.
The next experiment addresses mCherry-IZ-sCD95L. Kind of experiment: fluorescence correlation spectroscopy.
In experiment [1] the target is T1, CD95-mEos2 (human), P25445.
T1 chain: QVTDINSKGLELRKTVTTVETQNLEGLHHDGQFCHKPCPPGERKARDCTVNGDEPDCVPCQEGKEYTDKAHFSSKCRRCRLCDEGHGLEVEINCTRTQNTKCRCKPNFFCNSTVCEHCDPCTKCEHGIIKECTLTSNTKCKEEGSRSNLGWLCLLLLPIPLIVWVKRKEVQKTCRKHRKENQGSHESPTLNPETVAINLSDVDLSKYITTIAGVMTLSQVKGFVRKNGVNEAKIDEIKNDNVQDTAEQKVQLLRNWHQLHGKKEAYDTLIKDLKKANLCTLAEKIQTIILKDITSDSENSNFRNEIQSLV
Kind of experiment: quantitative PALM. The note with it: remark: other sources report otherwise.

The term stoichiometry N denotes a count of units in the complex or per binding partner.

For mCherry-sCD95L (ligand), the stoichiometry N in the experiment with mCherry-sCD95L came out at 3.

For mCherry-IZ-sCD95L (ligand), the stoichiometry N with mCherry-IZ-sCD95L came to 3.

B1: CD95-mEos2, P25445 26-335 (receptor)
chain: T1 chain
In experiment [1], B1 yielded a fraction of dimers of 42% and a fraction of monomers of 58%.

The record behind these values is doi:10.1101/293530.
